One block for each binder: values may come before it.
Experiments:
[1] = target: T1, recombinant murine transferrin receptor 1 (mTfR1), extracellular domain fused to a His-tag (murine, UniProt Q62351 89-763); test: SPR (Biacore 8K), mTfR1 amine-coupled on CM5 chip, single cycle kinetics
T1 construct: Position of the His-tag (N or C) unknown; also called recombinant mTfR1; murine TfR1; not shown: His-tag
Method: Monovalent binding interaction for mAb158-scLc-8D3-Ig.8 against murine TfR1 was measured using surface plasmon resonance (Biacore 8K, Cytiva). A Cm5 sensor chip (Cytiva, #BR100399) was immobilized with 3 μg/ml of mTfR1 using the amine coupling kit type 2 (Cytiva, #BR100633) according to the manufacturer's instruction. A 2-fold dilution series in HBS-EP+(Cytiva, #BR100669) starting at 50 nM of analyte was injected in duplicates over the immobilized ligand and the interaction was measured using the single cycle kinetics method with a contact time of 160 s at a flow rate of […] followed by a dissociation time of 1000 s.

[2] = target: T1, recombinant murine transferrin receptor …; test: indirect ELISA, plates coated with recombinant mTfR1
Method: Binding of selected expressed constructs to mTfR1 was assessed by indirect ELISA (FIG. 4). In brief, half area 96-well plates (Corning, #3690) were coated with 1 μg/ml recombinant mTfR1, produced as described in Example 4, in PBS overnight at 4° C. The coated plates were blocked using Pierce protein-free blocking solution (Thermo Fisher Scientific, #37572) for 1 h at room temperature with shaking and washed four times in PBS containing 0.1% TWEEN-20. Serial dilutions (1:3) of expressed constructs in incubation buffer (1% BSA, 0.1% TWEEN-20 in PBS) were incubated for 1 h at room temperature. Following the four wash steps, bound test constructs were detected by addition of anti-mouse-IgG F(ab′)2-HRP antibody (Jackson Immuno Research, #115-035-006) at 1:1250 dilution in incubation buffer (1 h, room temperature). Following four wash steps, K-Blue® Aqueous TMB substrate (Neogen, #331177) was added to the wells for 15 min at room temperature before the reaction was stopped with 1:1 dilution of 0.5 M H₂SO₄. The optical density at 450 nm was recorded (Spark, Tecan) and background signal was subtracted before analysis.

[3] = target: T2, mTfR1 expressed on cell surfaces of Immortalized Mouse Cerebral Capillary Endothelial Cells (cEND) (mouse, UniProt Q62351 1-763); test: flow cytometry on cEND cells, 100 nM, 4° C., anti-mouse IgG-PE
T2 construct: whole, on cells; also called mTfR1 on cEND cells
Method: Binding and uptake mediated by TfR1 was measured on Immortalized Mouse Cerebral Capillary Endothelial Cells (cEND) (ABM, #T0290).
The pellet was resuspended in PBS and 200,000 cells per well were seeded in U-bottom 96-well Corning plates for flow cytometry staining. Cells were then washed with PBS and incubated with 100 nM of one of the mAb158-8D3 constructs mAb158-scLc-8D3-Ig.1, mAb158-scLc-8D3-Ig.2 and mAb158-scLc-8D3-Ig.3, control 8D3 IgG (light chain of SEQ ID NO:17, heavy chain of SEQ ID NO:19) or murine IgG control for 45 min at 4° C. After primary incubation, cells were washed twice with ice cold PBS, and mAb158-8D3 constructs were captured using a fluorescently labeled secondary anti-mouse IgG-PE antibody (BD Biosciences, 550589). After incubation, cells were washed twice with PBS and resuspended in 200 μl PBS. Cells were acquired in a BD FACSLyric flow cytometer system (BD Biosciences) and samples were analyzed using FCS Express software (De Novo Software).

T1 sequence (Q62351 89-763): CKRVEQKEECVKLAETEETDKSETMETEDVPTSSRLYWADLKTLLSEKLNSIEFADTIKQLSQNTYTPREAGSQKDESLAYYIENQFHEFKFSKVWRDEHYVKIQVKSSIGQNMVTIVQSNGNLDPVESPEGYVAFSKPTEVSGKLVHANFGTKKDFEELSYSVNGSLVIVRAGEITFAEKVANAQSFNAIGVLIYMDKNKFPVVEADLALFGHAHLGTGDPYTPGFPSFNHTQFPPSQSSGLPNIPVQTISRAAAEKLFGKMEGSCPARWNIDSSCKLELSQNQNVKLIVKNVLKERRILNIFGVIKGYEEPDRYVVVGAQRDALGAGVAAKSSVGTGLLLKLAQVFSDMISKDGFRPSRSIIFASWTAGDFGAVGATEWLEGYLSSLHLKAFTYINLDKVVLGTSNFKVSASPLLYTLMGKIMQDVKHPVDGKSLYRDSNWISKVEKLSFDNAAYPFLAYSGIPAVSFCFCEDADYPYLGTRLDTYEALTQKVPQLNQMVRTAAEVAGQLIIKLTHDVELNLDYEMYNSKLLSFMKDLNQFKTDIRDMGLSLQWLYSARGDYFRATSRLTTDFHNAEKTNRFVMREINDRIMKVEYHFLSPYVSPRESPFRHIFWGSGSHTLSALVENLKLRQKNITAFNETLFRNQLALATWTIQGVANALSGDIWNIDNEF
T2 sequence (Q62351 whole entry): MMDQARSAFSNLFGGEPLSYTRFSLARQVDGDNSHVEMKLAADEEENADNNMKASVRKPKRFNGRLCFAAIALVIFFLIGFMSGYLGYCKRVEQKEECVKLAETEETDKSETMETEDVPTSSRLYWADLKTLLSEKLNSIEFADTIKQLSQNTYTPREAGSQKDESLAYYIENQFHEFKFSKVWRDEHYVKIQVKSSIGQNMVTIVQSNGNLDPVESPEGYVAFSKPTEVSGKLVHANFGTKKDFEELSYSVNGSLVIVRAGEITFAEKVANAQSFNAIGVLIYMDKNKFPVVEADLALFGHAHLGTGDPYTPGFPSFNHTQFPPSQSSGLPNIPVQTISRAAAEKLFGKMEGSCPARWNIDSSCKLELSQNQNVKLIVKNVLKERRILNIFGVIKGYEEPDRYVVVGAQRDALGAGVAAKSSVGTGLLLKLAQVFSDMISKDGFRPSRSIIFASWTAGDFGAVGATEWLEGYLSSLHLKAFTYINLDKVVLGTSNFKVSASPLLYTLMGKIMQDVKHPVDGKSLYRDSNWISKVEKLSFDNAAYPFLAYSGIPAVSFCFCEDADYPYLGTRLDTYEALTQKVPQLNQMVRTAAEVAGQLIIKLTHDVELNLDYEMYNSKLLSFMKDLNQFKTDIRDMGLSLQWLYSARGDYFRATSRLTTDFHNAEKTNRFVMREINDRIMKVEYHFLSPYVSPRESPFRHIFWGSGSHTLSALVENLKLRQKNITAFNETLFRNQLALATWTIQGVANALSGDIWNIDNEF

- binding result [1]: binds
B1: 8D3 Fab (Fab, V domains shown)
VH: EVQLVESGGGLVQPGNSLTLSCVASGFTFSNYGMHWIRQAPKKGLEWIAMIYYDSSKMNYADTVKGRFTISRDNSKNTLYLEMNSLRSEDTAMYYCAVPTSHYVVDVWGQGVSVTVSS
VL: DIQMTQSPASLSASLEEIVTITCQASQDIGNWLAWYQQKPGKSPQLLIYGATSLADGVPSRFSGSRSGTQFSLKISRVQVEDIGIYYCLQAYNTPWTFGGGTKLELKR
notes: Anti-mouse TfR1 control; also called monovalent 8D3 Fab control; monovalent 8D3 Fab

- binding result [2]: binds
B2: mAb158-scLc-8D3-Ig.2 (bispecific antibody, human IgG1, kappa)
heavy: not shown
chain: DIVMTQAPLSLPVSLGDQASISCRSSQSIVHSNGNTYLEWYLQKPGQSPKLLIYKVSNRFSGVPDRFSGSGSGTDFTLKISRVEAEDLGIYYCFQGSHVPPTFGGGTKLEIKRADAAPTVSIFPPSSEQLTSGGASVVCFLNNFYPKDINVKWKIDGSERQNGVLNSWTDQDSKDSTYSMSSTLTLTKDEYERHNSYTCEATHKTSTSPIVKSFNRNECGGGGSGGGGSGGGGSGGGGSGGGGSEVQLVESGGGLVQPGNSLTLSCVASGFTFSNYGMHWIRQAPKKGLEWIAMIYYDSSKMNYADTVKGRFTISRDNSKNTLYLEMNSLRSEDTAMYYCAVPTSHYVVDVWGQGVSVTVSSGGGGSGGGGSGGGGSDIQMTQSPASLSASLEEIVTITCQASQDIGNWLAWYQQKPGKSPQLLIYGATSLADGVPSRFSGSRSGTQFSLKISRVQVEDIGIYYCLQAYNTPWTFGGGTKLELKRGGGGSGGGGSGGGGSGGGGSGGGGSDIVMTQAPLSLPVSLGDQASISCRSSQSIVHSNGNTYLEWYLQKPGQSPKLLIYKVSNRFSGVPDRFSGSGSGTDFTLKISRVEAEDLGIYYCFQGSHVPPTFGGGTKLEIKRADAAPTVSIFPPSSEQLTSGGASVVCFLNNFYPKDINVKWKIDGSERQNGVLNSWTDQDSKDSTYSMSSTLTLTKDEYERHNSYTCEATHKTSTSPIVKSFNRNEC
notes: Format [LC-L1-scBM-L2-LC]
- binding result [3]: binds

- binding result [2]: binds
B3: mAb158-scLc-8D3-Ig.3 (bispecific antibody, human IgG1, kappa)
heavy: not shown
chain: DIVMTQAPLSLPVSLGDQASISCRSSQSIVHSNGNTYLEWYLQKPGQSPKLLIYKVSNRFSGVPDRFSGSGSGTDFTLKISRVEAEDLGIYYCFQGSHVPPTFGGGTKLEIKRADAAPTVSIFPPSSEQLTSGGASVVCFLNNFYPKDINVKWKIDGSERQNGVLNSWTDQDSKDSTYSMSSTLTLTKDEYERHNSYTCEATHKTSTSPIVKSFNRNECGGSSGSGSGSTGTSSSGTGTSAGTTGTSASTSGSGSEVQLVESGGGLVQPGNSLTLSCVASGFTFSNYGMHWIRQAPKKGLEWIAMIYYDSSKMNYADTVKGRFTISRDNSKNTLYLEMNSLRSEDTAMYYCAVPTSHYVVDVWGQGVSVTVSSGGGGSGGGGSGGGGSDIQMTQSPASLSASLEEIVTITCQASQDIGNWLAWYQQKPGKSPQLLIYGATSLADGVPSRFSGSRSGTQFSLKISRVQVEDIGIYYCLQAYNTPWTFGGGTKLELKRGGSSGSGSGSTGTSSSGTGTSAGTTGTSASTSGSGSGGSSGSGSGSTGTSSSGTGTSAGTTGTSASTSGSGSDIVMTQAPLSLPVSLGDQASISCRSSQSIVHSNGNTYLEWYLQKPGQSPKLLIYKVSNRFSGVPDRFSGSGSGTDFTLKISRVEAEDLGIYYCFQGSHVPPTFGGGTKLEIKRADAAPTVSIFPPSSEQLTSGGASVVCFLNNFYPKDINVKWKIDGSERQNGVLNSWTDQDSKDSTYSMSSTLTLTKDEYERHNSYTCEATHKTSTSPIVKSFNRNEC
notes: Format [LC-L1-scBM-L2-LC]
- binding result [3]: binds

Source: patent publication US20240141027A1 (BIOARCTIC, published 2024)
